Measurements as given in patent publication US11098105 (Zymeworks, dated 2021).
Residue numbers refer to the chain shown, from its start.

T1: FcγRIIaH (UniProt P12318 36-218)
T1 construct: also called 2aH; 2ah
T1 sequence (looked up): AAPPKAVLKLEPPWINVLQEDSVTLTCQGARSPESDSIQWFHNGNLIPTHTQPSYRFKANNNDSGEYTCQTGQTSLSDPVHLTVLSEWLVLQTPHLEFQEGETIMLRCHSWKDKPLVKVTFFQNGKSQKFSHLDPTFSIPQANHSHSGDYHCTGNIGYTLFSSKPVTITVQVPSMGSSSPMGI

T2: FcγRIIaR (UniProt P12318 36-218)
T2 construct: also called 2aR; 2ar
T2 sequence (looked up): T1 sequence (looked up) with H132R

T3: FcγRIIb (UniProt P31994 46-217)
T3 construct: also called 2b; CD32b
T3 sequence (looked up): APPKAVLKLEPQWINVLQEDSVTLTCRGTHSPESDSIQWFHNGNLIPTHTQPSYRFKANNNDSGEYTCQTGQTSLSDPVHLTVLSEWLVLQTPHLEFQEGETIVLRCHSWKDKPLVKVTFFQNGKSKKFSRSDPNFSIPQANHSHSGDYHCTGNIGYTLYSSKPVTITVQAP

B1: Control WT Rituximab 1261 (antibody, human IgG1, kappa)
heavy 1: QVQLQQPGAELVKPGASVKMSCKASGYTFTSYNMHWVKQTPGRGLEWIGAIYPGNGDTSYNQKFKGKATLTADKSSSTAYMQLSSLTSEDSAVYYCARSTYYGGDWYFNVWGAGTTVTVSAASTKGPSVFPLAPSSKSTSGGTAALGCLVKDYFPEPVTVSWNSGALTSGVHTFPAVLQSSGLYSLSSVVTVPSSSLGTQTYICNVNHKPSNTKVDKKVEPKSCDKTHTCPPCPAPELLGGPSVFLFPPKPKDTLMISRTPEVTCVVVDVSHEDPEVKFNWYVDGVEVHNAKTKPREEQYNSTYRVVSVLTVLHQDWLNGKEYKCKVSNKALPAPIEKTISKAKGQPREPQVYVYPPSRDELTKNQVSLTCLVKGFYPSDIAVEWESNGQPENNYKTTPPVLDSDGSFALVSKLTVDKSRWQQGNVFSCSVMHEALHNHYTQKSLSLSPGK
heavy 2: not shown
light: QIVLSQSPAILSASPGEKVTMTCRASSSVSYIHWFQQKPGSSPKPWIYATSNLASGVPVRFSGSGSGTSYSLTISRVEAEDAATYYCQQWTSNPPTFGGGTKLEIKRTVAAPSVFIFPPSDEQLKSGTASVVCLLNNFYPREAKVQWKVDNALQSGNSQESVTEQDSKDSTYSLSSTLTLSKADYEKHKVYACEVTHQGLSSPVTKSFNRGEC
notes: also called v1261; V1261
B2: AAC12, rituximab-based asymmetric antibody construct (antibody, human IgG1, kappa)
heavy 1: B1 heavy 1 with L238D, L239E, K326A
heavy 2: B1 heavy 1 with E237K, L238R, L239R, K326A, Y355L, T370L, K396L, T398W, A409F, V411Y
light: B1 light
B3: AAC11, rituximab-based asymmetric antibody construct (antibody, human IgG1, kappa)
heavy 1: B1 heavy 1 with L238D, L239E, E273K
heavy 2: B1 heavy 1 with E237K, L238R, L239R, E273K, Y355L, T370L, K396L, T398W, A409F, V411Y
light: B1 light
B4: AAC10, rituximab-based asymmetric antibody construct (antibody, human IgG1, kappa)
heavy 1: B1 heavy 1 with L238D, L239E, D269S
heavy 2: B1 heavy 1 with E237K, L238R, L239R, D269S, Y355L, T370L, K396L, T398W, A409F, V411Y
light: B1 light
B5: AAC15, rituximab-based asymmetric antibody construct (antibody, human IgG1, kappa)
heavy 1: B1 heavy 1 with L238D, L239E, D269S, E273K, K326E, E337K
heavy 2: QVQLQQPGAELVKPGASVKMSCKASGYTFTSYNMHWVKQTPGRGLEWIGAIYPGNGDTSYNQKFKGKATLTADKSSSTAYMQLSSLTSEDSAVYYCARSTYYGGDWYFNVWGAGTTVTVSAASTKGPSVFPLAPSSKSTSGGTAALGCLVKDYFPEPVTVSWNSGALTSGVHTFPAVLQSSGLYSLSSVVTVPSSSLGTQTYICNVNHKPSNTKVDKKVEPKSCDKTHTCPPCPAPKRRGGPSVFLFPPKPKDTLMISRTPEVTCVVVSVSHKDPEVKFNWYVDGVEVHNAKTKPREEQYNSTYRVVSVLTVLHQDWLNGKEYKCEVSNKALPAPIKKTISKAKGQPREPQVYVLPPSRDELTKNQVSLLCLVKGFYPSDIAVEWESNGQPENNYLTWPPVLDSDGSFFLYSKLTVDKSRWQQGNVFSCSVMHEALHNHYTQKSLSLSPGK
light: B1 light
B6: AAC9, rituximab-based asymmetric antibody construct (antibody, human IgG1, kappa)
heavy 1: B1 heavy 1 with L238D, L239E
heavy 2: B5 heavy 2 with S269D, K273E, E326K, K337E
light: B1 light
B7: AAC14, rituximab-based asymmetric antibody construct (antibody, human IgG1, kappa)
heavy 1: B1 heavy 1 with L238D, L239E, D269S, E273K, K326A
heavy 2: B5 heavy 2 with E326A, K337E
light: B1 light
B8: AAC13, rituximab-based asymmetric antibody construct (antibody, human IgG1, kappa)
heavy 1: B1 heavy 1 with L238D, L239E, P333W
heavy 2: B5 heavy 2 with S269D, K273E, E326K, P333W, K337E
light: B1 light

Biological target: CD16a(158V/V) on NK92 effector cells (UniProt P08637 17-254, limits assumed)
Assay: cell-based or functional assay

Row | ADCC EC50 [nM], Daudi cells, NK92/CD16a(158V/V) effector cells [nM] | ADCC Maximum Lysis, Daudi cells, NK92/CD16a(158V/V) effector cells [% cell lysis] | Binder
1 | 0.1 | 66 | B1
2 | 23.1 | 20 | B2
3 | > 100 |  | B3
4 | 7.4 | 45 | B4

Biological target: Human C1q (human, UniProt P02745 23-245; P02746 28-253; P02747 29-245)
Assay: cell-based or functional assay

Chain of Human C1q (P02745 23-245 limits assumed, chain 1 of 3): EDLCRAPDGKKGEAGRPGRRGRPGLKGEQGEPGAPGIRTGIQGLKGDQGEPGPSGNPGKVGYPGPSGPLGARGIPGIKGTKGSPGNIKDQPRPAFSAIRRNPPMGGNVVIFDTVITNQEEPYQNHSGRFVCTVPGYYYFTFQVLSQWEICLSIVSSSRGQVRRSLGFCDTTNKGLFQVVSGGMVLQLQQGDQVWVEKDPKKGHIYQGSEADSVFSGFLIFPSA
Chain of Human C1q (P02746 28-253 limits assumed, chain 2 of 3): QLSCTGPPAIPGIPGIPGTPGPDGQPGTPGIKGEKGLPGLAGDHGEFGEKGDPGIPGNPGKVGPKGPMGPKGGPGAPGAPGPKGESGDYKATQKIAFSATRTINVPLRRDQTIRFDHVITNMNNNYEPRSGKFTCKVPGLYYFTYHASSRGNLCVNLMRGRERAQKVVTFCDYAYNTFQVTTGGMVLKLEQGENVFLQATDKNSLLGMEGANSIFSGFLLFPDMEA
Chain of Human C1q (P02747 29-245 limits assumed, chain 3 of 3): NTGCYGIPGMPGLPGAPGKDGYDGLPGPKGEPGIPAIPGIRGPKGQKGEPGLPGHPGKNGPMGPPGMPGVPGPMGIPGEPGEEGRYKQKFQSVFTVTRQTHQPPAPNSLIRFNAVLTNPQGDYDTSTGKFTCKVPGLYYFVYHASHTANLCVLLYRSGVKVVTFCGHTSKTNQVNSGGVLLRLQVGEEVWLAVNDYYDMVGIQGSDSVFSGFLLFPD

Row | CDC EC50 [nM], Daudi cells, 10% normal human serum [nM] | CDC Maximum Lysis, Daudi cells, 10% normal human serum [% cell lysis] | Binder
5 | 2.9 | 96 | B1
6 | ~55.9 | 43 | B5
7 | 54.6 | 67 | B2
8 | 51.6 | 63 | B3
9 | 82.8 | 79 | B4
10 | 47.9 | 68 | B6
11 | 69.7 | 72 | B7

Biological target: T1, FcγRIIaH
Assay: SPR, antibody captured by goat anti-IgG, FcγR injected

Row | binding result | Binder
12 | no binding | B5
13 | no binding | B2
14 | no binding | B3
15 | no binding | B4
16 | no binding | B8
17 | no binding | B6
18 | no binding | B7

Biological target: T2, FcγRIIaR
Assay: as above

Row | binding result | Binder
19 | no binding | B5
20 | no binding | B2
21 | no binding | B3
22 | no binding | B4
23 | no binding | B8
24 | no binding | B6
25 | no binding | B7

Biological target: T3, FcγRIIb
Assay: as above

Row | binding result | Binder
26 | no binding | B5
27 | no binding | B2
28 | no binding | B3
29 | no binding | B4
30 | no binding | B8
31 | no binding | B6
32 | no binding | B7

Biological target: T4, FcγRIIIaF (UniProt P08637 17-208)
T4 construct: also called 3aF; 3af
Assay: as above

Row | binding result | Binder
33 | no binding | B5
34 | no binding | B2
35 | no binding | B3
36 | no binding | B4
37 | no binding | B8
38 | no binding | B6
39 | no binding | B7

Biological target: T1, FcγRIIaH
Assay: SPR, antibody captured by goat anti-IgG, FcγR injected, equilibrium fit
Description: (§1) Affinity of FcgR to antibody Fc was measured by SPR using a ProteOn XPR36 at 25° C. with PBS containing 3.4 mM EDTA, and 0.05% Tween 20 at pH 7.4 as the running buffer. […] 40 μg/mL of purified rituximab-based antibodies were indirectly captured by injecting at 25 μL/min for 240s (resulting in approx. 500RUs capture) in the ligand direction, following a buffer injection to establish a stable baseline in the analyte direction. FcγRs were subsequently injected at 50 μL/min for 120s with a 180s dissociation phase to obtain a set of binding sensorgrams. Resultant Kd (affinity) values were determined from double-referenced sensorgrams using the Equilibrium Fit model in the Proteon Manager software. Reported values as the mean of two or three independent runs.

Row | SPR Ka ratio with respect to wild-type trastuzumab | Binder
40 | 1.87 | B1

Biological target: T2, FcγRIIaR
Assay: as above
Description: as §1

Row | SPR Ka ratio with respect to wild-type trastuzumab | Binder
41 | 1.47 | B1

Biological target: T3, FcγRIIb
Assay: as above
Description: as §1

Row | SPR Ka ratio with respect to wild-type trastuzumab | Binder
42 | 1.85 | B1

Biological target: T4, FcγRIIIaF
Assay: as above
Description: as §1

Row | SPR Ka ratio with respect to wild-type trastuzumab | Binder
43 | 1.36 | B1

Biological target: T5, FcγRIIIaV (UniProt P08637 17-208)
T5 construct: also called 3aV; 3av
Assay: as above
Description: as §1

Row | SPR Ka ratio with respect to wild-type trastuzumab | Binder
44 | 1.34 | B1
45 | 0.08 | B2
46 | 0.08 | B6
